Patent US20160176956A1 (Novartis, published 2016)
Positions count from the first letter of the chain named. Numbers in names are those of the source. Read-outs that look alike come from different tables or passages of the source. Each block holds one molecule with its values, some of them ahead of it.

What was measured:
human BMP5 [1] = target: T1, human BMP5 (human, UniProt P22003 317-454, limits assumed); experiment: specificity ELISA, coated antigen, IgG 0.2 uM
T1 sequence: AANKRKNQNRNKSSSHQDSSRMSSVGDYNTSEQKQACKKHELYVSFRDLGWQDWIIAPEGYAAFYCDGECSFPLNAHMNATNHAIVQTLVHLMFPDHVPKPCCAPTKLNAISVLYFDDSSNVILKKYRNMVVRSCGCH
Experimental: (§1) After washing the plates three times with 100 uL TBST, each antigen was incubated with 40 uL of purified Fab or IgG samples at a concentration of 1 uM and 0.2 uM respectively (in PBST buffer).
(§2) After 2 h incubation at RT, the plates were again washed three times and bound Fabs/IgGs detected by adding 40 uL of a 1:5000 dilution of secondary AP-conjugated anti-human IgG F(ab2) antibody. After 1 h at RT, the signal was developed by adding 40 uL AttoPhos substrate according to the manufacturer's protocol and the plates were analyzed immediately using an excitation wavelength of 430 nm and an emission wavelength of 535 nm with an ELISA plate reader.

human BMP6 [2] = target: T2, human BMP6 (human, UniProt P22004 382-513, limits assumed); experiment: specificity ELISA, coated antigen, IgG 0.2 uM
T2 sequence: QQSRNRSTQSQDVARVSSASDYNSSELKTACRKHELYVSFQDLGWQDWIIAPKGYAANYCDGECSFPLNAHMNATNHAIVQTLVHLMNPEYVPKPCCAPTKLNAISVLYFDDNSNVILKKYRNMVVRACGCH
Experimental: as §1, §2

mouse BMP6 = target: T3, mouse BMP6 (mouse, UniProt P20722 372-510, limits assumed); experiment: specificity ELISA, coated antigen, IgG 0.2 uM
T3 construct: also called mBMP6; mBMP6_RD
T3 sequence (looked up): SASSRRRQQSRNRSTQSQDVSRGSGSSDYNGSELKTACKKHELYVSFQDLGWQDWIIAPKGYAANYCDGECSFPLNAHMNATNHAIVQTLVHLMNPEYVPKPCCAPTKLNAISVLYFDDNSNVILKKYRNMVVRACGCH
Experimental: as §1, §2

Bovine serum albumin [3] = target: T4, Bovine serum albumin (bovine, UniProt P02769 25-607); experiment: specificity ELISA, coated antigen, IgG 0.2 uM
T4 construct: unrelated control antigen in the specificity ELISA; also called BSA
Experimental: as §1, §2

human BMP7 [4] = target: T5, human BMP7 (human, UniProt P18075 293-431); experiment: specificity ELISA, coated antigen, IgG 0.2 uM
T5 sequence: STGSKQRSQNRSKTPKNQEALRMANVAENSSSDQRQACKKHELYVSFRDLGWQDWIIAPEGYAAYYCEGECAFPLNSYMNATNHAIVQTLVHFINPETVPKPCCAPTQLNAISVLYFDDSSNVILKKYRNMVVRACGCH
Experimental: as §1, §2

human BMP6 [5] = target: T2, human BMP6; experiment: cell-based or functional assay
human BMP2 [6] = target: T6, human BMP2 (human, UniProt P12643 283-396); experiment: cell-based or functional assay
human BMP7 [7] = target: T5, human BMP7; experiment: cell-based or functional assay
human BMP6 [8] = target: T2, human BMP6; experiment: cell-based or functional assay; remark: listed apart in the source
human BMP6 [9] = target: T2, human BMP6; experiment: Biacore
human BMP6 [10] = target: T2, human BMP6; experiment: cell-based or functional assay; remark: listed apart in the source
human BMP6 [11] = target: T2, human BMP6; experiment: method not stated in the table (Table 7 names Biacore)
human BMP6 [12] = target: T2, human BMP6; experiment: cell-based or functional assay; remark: listed apart in the source
[13] = target: 384 purified extracellular or secretory proteins (Protagen UNIchip); experiment: Protagen UNIchip protein chip with 384 purified extracellular or secretory proteins, purified hIgG1
human BMP6 [14] = target: T2, human BMP6; experiment: cell-based or functional assay; remark: listed apart in the source
human BMP2 [15] = target: T6, human BMP2; experiment: cell-based or functional assay; remark: listed apart in the source
human BMP7 [16] = target: T5, human BMP7; experiment: cell-based or functional assay; remark: listed apart in the source
human BMP5 [17] = target: T1, human BMP5; experiment: cell-based or functional assay
Bovine serum albumin [18] = target: T4, Bovine serum albumin; experiment: ELISA on coated antigen, detection with anti-Fab-AP, fluorescence signal intensity
human BMP5 [19] = target: T1, human BMP5; experiment: cell-based or functional assay; remark: listed apart in the source
human BMP6 [20] = target: T2, human BMP6; experiment: ELISA binding assay; reference human BMP7
human BMP2 [21] = target: T6, human BMP2; experiment: cell-based or functional assay; remark: listed apart in the source

T6 sequence (P12643 283-396 limits assumed): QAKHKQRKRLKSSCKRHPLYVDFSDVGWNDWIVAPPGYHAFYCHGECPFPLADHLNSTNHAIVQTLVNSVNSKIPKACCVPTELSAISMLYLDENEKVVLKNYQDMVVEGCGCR
T4 sequence (P02769 25-607 limits assumed): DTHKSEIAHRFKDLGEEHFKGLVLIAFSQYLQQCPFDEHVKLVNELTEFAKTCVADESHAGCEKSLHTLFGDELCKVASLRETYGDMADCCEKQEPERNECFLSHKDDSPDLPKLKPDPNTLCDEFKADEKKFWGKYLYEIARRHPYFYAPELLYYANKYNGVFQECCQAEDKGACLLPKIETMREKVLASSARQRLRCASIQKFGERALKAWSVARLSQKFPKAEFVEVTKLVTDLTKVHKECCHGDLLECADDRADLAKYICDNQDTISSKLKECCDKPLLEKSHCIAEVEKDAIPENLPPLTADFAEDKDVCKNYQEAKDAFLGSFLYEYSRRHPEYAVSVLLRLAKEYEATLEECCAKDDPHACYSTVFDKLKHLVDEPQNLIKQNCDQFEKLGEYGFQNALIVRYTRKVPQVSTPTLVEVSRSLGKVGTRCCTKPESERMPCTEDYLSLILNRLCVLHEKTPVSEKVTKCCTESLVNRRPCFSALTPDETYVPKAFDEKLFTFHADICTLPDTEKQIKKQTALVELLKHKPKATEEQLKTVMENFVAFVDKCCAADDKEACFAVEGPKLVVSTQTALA

B1: Antibody 5 (antibody, human IgG1, lambda, V domains shown)
VH: QVQLVESGGGLVKPGGSLRLSCAASGFTFSSYVVHWVRQAPGKGLEWVGRIKRESSSYTTMYAAPVKGRFTISRDDSKNTLYLQMNSLKTEDTAVYYCARVERSKSGFDNWGQGTLVTVSS
VL: QSVLTQPPSVSGAPGQRVTISCTGSSSNIGAGYSVHWYQQLPGTAPKLLIYGQSERPSGVPDRFSGSKSGTSASLAITGLQAEDEADYYCQSWDSSQTLVVFGGGTKLTVLG
notes: germlined clone of NOV0787 (HCDR2-matured NOV0442_VL[Y49,G50,N51Q]); human IgG1; lead antibody; also called NOV0951; NOV951
BRE-luc reporter IC50 in Hep3B (human BMP6 [5]): 0.4 nM
selectivity window of BMP6 over this BMP (BRE-luc reporter) (human BMP2 [6]): ≥ 500 fold
selectivity window of BMP6 over this BMP (BRE-luc reporter) (human BMP7 [7]): ≥ 500 fold
BRE-Luc RGA IC50 (human BMP6 [8]): 0.26 nM
RGA selectivity, hBMP6 over hBMP7 (human BMP6 [8]): ~1000 fold
Kd (human BMP6 [9]): ~0.1 nM
IC50 (read off the curve); BMP6-induced BRE-luc reporter activity in HEP3B cells (human BMP6 [10]): ~0.5 nM
Signal over background (human BMP6 [2]): 65
Signal over background (mouse BMP6): 24
Signal over background (Bovine serum albumin [3]): 1
Signal over background (human BMP7 [4]): 8
Kd (human BMP6 [11]): 0.1 nM
IC50(ug/ml) BMP6 reporter (human BMP6 [12]): 0.06 µg/mL
off-target hits [13]: < 10 hits
RGA IC50 (human BMP6 [14]): 0.04 µg/mL
RGA max (human BMP6 [14]): 0.9
RGA min (human BMP6 [14]): 0.02
RGA IC50 (human BMP2 [15]): > 25 µg/mL
RGA max (human BMP2 [15]): 1
RGA min (human BMP2 [15]): 0.9
RGA IC50 (human BMP7 [16]): 25 µg/mL
RGA max (human BMP7 [16]): 1
RGA min (human BMP7 [16]): 0.5

B2: Antibody 3 (antibody, human IgG1, lambda, V domains shown)
VH: B1 VH with R53D, E54H, S55K, S56Q, S57G, M61A, P65S
VL: B1 VL with Q53S
notes: germlined clone of NOV0800 (HCDR2-matured NOV0442_VL[Y49,G50,N51S]); human IgG1; back-up antibody; also called NOV0961; NOV961
Signal over background (human BMP5 [1]): 1
Signal over background (human BMP6 [2]): 48
Signal over background (mouse BMP6): 29
Signal over background (Bovine serum albumin [3]): 1
Signal over background (human BMP7 [4]): 2
RGA IC50 (human BMP5 [17]): > 25 µg/mL
RGA max (human BMP5 [17]): 0.9
RGA min (human BMP5 [17]): 0.8
RGA IC50 (human BMP6 [14]): 0.08 µg/mL
RGA max (human BMP6 [14]): 0.9
RGA min (human BMP6 [14]): 0.02
RGA IC50 (human BMP2 [15]): > 25 µg/mL
RGA max (human BMP2 [15]): 1
RGA min (human BMP2 [15]): 0.8
RGA IC50 (human BMP7 [16]): > 25 µg/mL
RGA max (human BMP7 [16]): 1
RGA min (human BMP7 [16]): 0.8

The next lines start with results.

Signal over background (human BMP5 [1]): 4
Signal over background (human BMP6 [2]): 61
Signal over background (mouse BMP6): 18
Signal over background (Bovine serum albumin [3]): 1
Signal over background (human BMP7 [4]): 14
Molecule: Control IgG (antibody)

selectivity window of BMP6 over this BMP (BRE-luc reporter) (human BMP5 [19]): ≥ 500 fold
BRE-luc reporter IC50 in Hep3B (human BMP6 [5]): 0.4 nM
selectivity window of BMP6 over this BMP (BRE-luc reporter) (human BMP7 [7]): ≥ 500 fold
fold selectivity for human BMP6 over human BMP7 (human BMP6 [20]): > 500 fold
BRE-Luc RGA IC50 (human BMP6 [8]): 0.26 nM
RGA selectivity, hBMP6 over hBMP7 (human BMP6 [8]): ~1000 fold
RGA IC50 (human BMP2 [21]): > 25 µg/mL
RGA max (human BMP2 [21]): 0.9
RGA min (human BMP2 [21]): 1.1
selectivity window of BMP6 over this BMP (BRE-luc reporter) (human BMP2 [21]): > 500 fold
Kd (human BMP6 [9]): ~0.1 nM
IC50 (read off the curve); BMP6-induced BRE-luc reporter activity in HEP3B cells (human BMP6 [10]): ~0.5 nM
Signal over background (human BMP6 [2]): 59
Signal over background (mouse BMP6): 32
Signal over background (Bovine serum albumin [3]): 1
Signal over background (human BMP7 [4]): 7
Kd (human BMP6 [11]): 0.1 nM
IC50(ug/ml) BMP6 reporter (human BMP6 [12]): 0.07 µg/mL
off-target hits [13]: < 10 hits
RGA IC50 (human BMP5 [17]): > 25 µg/mL
RGA max (human BMP5 [17]): 1.1
RGA min (human BMP5 [17]): 1.1
RGA IC50 (human BMP6 [14]): 0.04 µg/mL
RGA max (human BMP6 [14]): 0.9
RGA min (human BMP6 [14]): 0.02
RGA IC50 (human BMP7 [16]): 25 µg/mL
RGA max (human BMP7 [16]): 0.9
RGA min (human BMP7 [16]): 0.5
B3: Antibody 7 (antibody, human IgG1, lambda, V domains shown)
VH: B1 VH with K52R, R53L, S55T, S56H, S57G, T59A, T60A, M61E, P65S
VL: B1 VL
notes: germlined clone of NOV0806 (HCDR2-matured NOV0442_VL[Y49,G50,N51Q]); human IgG1; final lead; also called NOV0958; NOV958
binding result (Bovine serum albumin [18]): no binding (tested: not given on the sheet)

selectivity window of BMP6 over this BMP (BRE-luc reporter) (human BMP5 [19]): ≥ 500 fold
BRE-luc reporter IC50 in Hep3B (human BMP6 [5]): 0.4 nM
selectivity window of BMP6 over this BMP (BRE-luc reporter) (human BMP2 [6]): ≥ 500 fold
selectivity window of BMP6 over this BMP (BRE-luc reporter) (human BMP7 [7]): ≥ 500 fold
BRE-Luc RGA IC50 (human BMP6 [8]): 0.3 nM
RGA selectivity, hBMP6 over hBMP7 (human BMP6 [8]): ~1000 fold
Kd (human BMP6 [9]): ~0.1 nM
IC50 (read off the curve); BMP6-induced BRE-luc reporter activity in HEP3B cells (human BMP6 [10]): ~0.5 nM
Signal over background (human BMP5 [1]): 2
Signal over background (human BMP6 [2]): 38
Signal over background (mouse BMP6): 29
Signal over background (Bovine serum albumin [3]): 1
Signal over background (human BMP7 [4]): 3
Kd (human BMP6 [11]): < 0.1 nM
IC50(ug/ml) BMP6 reporter (human BMP6 [12]): 0.08 µg/mL
off-target hits [13]: < 10 hits
RGA IC50 (human BMP5 [17]): > 25 µg/mL
RGA max (human BMP5 [17]): 1
RGA min (human BMP5 [17]): 0.9
RGA IC50 (human BMP6 [14]): 0.05 µg/mL
RGA max (human BMP6 [14]): 1
RGA min (human BMP6 [14]): 0.02
RGA IC50 (human BMP2 [15]): > 25 µg/mL
RGA max (human BMP2 [15]): 1
RGA min (human BMP2 [15]): 1
RGA IC50 (human BMP7 [16]): 25 µg/mL
RGA max (human BMP7 [16]): 0.9
RGA min (human BMP7 [16]): 0.5
B4: Antibody 6 (antibody, human IgG1, lambda, V domains shown)
VH: B1 VH with I51T, K52R, R53H, E54S, S55D, S56M, S57G, T59A, M61S
VL: B1 VL
notes: germlined clone of NOV0798 (HCDR2-matured NOV0442_VL[Y49,G50,N51Q]); human IgG1; lead antibody; also called NOV0954; NOV954
